Results published in PMC8191316, “Structural basis for CD97 recognition of the decay-accelerating factor CD55 suggests mechanosensitive activation of adhesion GPCRs” (The Journal of Biological Chemistry, 2021).

B1: CD97 EGF_(1,2,5) fragment, WT, without His-tag (SPR construct with TEV site) [human] / CD55 SCR1–4 domains (35–285), His-tagged [human] (parent)
chain 1: QDSRGCARWCPQNSSCVNATACRCNPGFSSFSEIITTPTETCDDINECATPSKVSCGKFSDCWNTEGSYDCVCSPGYEPVSGAKTFKNESENTCQDVDECSSGQHQCDSSTVCFNTVGSYSCRCRPGWKPRHGIPNNQKDTVCED
chain 2: DCGLPPDVPNAQPALEGRTSFPEDTVITYKCEESFVKIPGEKDSVICLKGSQWSDIEEFCNRSCEVPTRLNSASLKQPYITQNYFPVGTVVEYECRPGYRREPSLSPKLTCLQNLKWSTAVEFCKKKSCPNPGEIRNGQIDVPGGILFGATISFSCNTGYKLFGSTSSFCLISGSSVQWSDPLPECREIYCPAPPQIDNGIIQGERDHYGYRQSVTYACNKGFTMIGEHSIYCTVNNDEGEWSGPPPECRG

Variants of: B1
Assay: SPR
Details: with CD55 SCR1–4 domains (35–285), His-tagged CD55 immobilized on NTA chip, CD97(D81A) titrated at 0.2, 0.5, 1, 2, 5, 10, 20 µM

koff	Variant
1.22 10^-3 s-1	chain 1 D61A

Same assay, conditions: with CD55 SCR1–4 domains (35–285), His-tagged CD55 immobilized on NTA chip, CD97(D81A) titrated at 0.2, 0.5, 1, 2, 5, 10, 20 µM, parent: 546

kon	Variant
20.2 M⁻¹ s⁻¹	chain 1 D61A

Same assay, conditions: with CD55 SCR1–4 domains (35–285), His-tagged CD55 immobilized on NTA chip, CD97(D63L) titrated at 0.2, 0.5, 1, 5, 10, 20 µM

koff	Variant
0.968 10^-3 s-1	chain 1 D43L

Same assay, conditions: with CD55 SCR1–4 domains (35–285), His-tagged CD55 immobilized on NTA chip, CD97(D63L) titrated at 0.2, 0.5, 1, 5, 10, 20 µM, parent: 546

kon	Variant
11.2 M⁻¹ s⁻¹	chain 1 D43L

Same assay, conditions: with CD55 SCR1–4 domains (35–285), His-tagged CD55 immobilized on NTA chip, CD97(E86A) titrated at 0.2, 0.5, 1, 2, 5, 10, 20, 30 µM

koff	Variant
1.41 10^-3 s-1	chain 1 E66A

Same assay, conditions: with CD55 SCR1–4 domains (35–285), His-tagged CD55 immobilized on NTA chip, CD97(E86A) titrated at 0.2, 0.5, 1, 2, 5, 10, 20, 30 µM, parent: 546

kon	Variant
80.1 M⁻¹ s⁻¹	chain 1 E66A

Same assay, conditions: with CD55 SCR1–4 domains (35–285), His-tagged CD55 immobilized on NTA chip, CD97(V137A) titrated at 0.2, 0.5, 1, 2, 5, 10, 20 µM

koff	Variant
1.63 10^-3 s-1	chain 1 V117A

Same assay, conditions: with CD55 SCR1–4 domains (35–285), His-tagged CD55 immobilized on NTA chip, CD97(V137A) titrated at 0.2, 0.5, 1, 2, 5, 10, 20 µM, parent: 546

kon	Variant
64 M⁻¹ s⁻¹	chain 1 V117A
